Results: paper doi:10.1101/2021.12.09.472013 (bioRxiv, 2021)

Target: the molecule itself
Assay: fluorescence fluctuation spectroscopy

B1: SS-torsinA^WT-EGFP (natural protein, UniProt O14656 21-332, looked up)
chain: VEPISLGLALAGVLTGYIYPRLYCLFAECCGQKRSLSREALQKDLDDNLFGQHLAKKIILNAVFGFINNPKPKKPLTLSLHGWTGTGKNFVSKIIAENIYEGGLNSDYVHLFVATLHFPHASNITLYKDQLQLWIRGNVSACARSIFIFDEMDKMHAGLIDAIKPFLDYYDLVDGVSYQKAMFIFLSNAGAERITDVALDFWRSGKQREDIKLKDIEHALSVSVFNNKNSGFWHSSLIDRNLIDYFVPFLPLEYKHLKMCIRVEMQSRGYEIDEDIVSRVAEEMTFFPKEERVFSDKGCKTVFTKLDYYYDD
With B1 the normalized brightness b was > 3.

B2: SS-EGFP-torsinA^WT (natural protein, UniProt O14656 21-332, looked up)
chain: VEPISLGLALAGVLTGYIYPRLYCLFAECCGQKRSLSREALQKDLDDNLFGQHLAKKIILNAVFGFINNPKPKKPLTLSLHGWTGTGKNFVSKIIAENIYEGGLNSDYVHLFVATLHFPHASNITLYKDQLQLWIRGNVSACARSIFIFDEMDKMHAGLIDAIKPFLDYYDLVDGVSYQKAMFIFLSNAGAERITDVALDFWRSGKQREDIKLKDIEHALSVSVFNNKNSGFWHSSLIDRNLIDYFVPFLPLEYKHLKMCIRVEMQSRGYEIDEDIVSRVAEEMTFFPKEERVFSDKGCKTVFTKLDYYYDD
With B2 the “stoichiometry N” value was ≥ 3.

B3: SS-EGFP-torsinA^50-332 (domain or fragment, UniProt O14656 50-332, looked up)
chain: CGQKRSLSREALQKDLDDNLFGQHLAKKIILNAVFGFINNPKPKKPLTLSLHGWTGTGKNFVSKIIAENIYEGGLNSDYVHLFVATLHFPHASNITLYKDQLQLWIRGNVSACARSIFIFDEMDKMHAGLIDAIKPFLDYYDLVDGVSYQKAMFIFLSNAGAERITDVALDFWRSGKQREDIKLKDIEHALSVSVFNNKNSGFWHSSLIDRNLIDYFVPFLPLEYKHLKMCIRVEMQSRGYEIDEDIVSRVAEEMTFFPKEERVFSDKGCKTVFTKLDYYYDD
B3 showed a normalized brightness b of ~8.

B4: SS-EGFP-torsinA^ΔNTD (natural protein, UniProt O14656 21-332, looked up)
chain: VEPISCLFAECCGQKRSLSREALQKDLDDNLFGQHLAKKIILNAVFGFINNPKPKKPLTLSLHGWTGTGKNFVSKIIAENIYEGGLNSDYVHLFVATLHFPHASNITLYKDQLQLWIRGNVSACARSIFIFDEMDKMHAGLIDAIKPFLDYYDLVDGVSYQKAMFIFLSNAGAERITDVALDFWRSGKQREDIKLKDIEHALSVSVFNNKNSGFWHSSLIDRNLIDYFVPFLPLEYKHLKMCIRVEMQSRGYEIDEDIVSRVAEEMTFFPKEERVFSDKGCKTVFTKLDYYYDD
With B4 the normalized brightness b was ~13.
